Reference: paper PMC11169542, “A probe for NIR-II imaging and multimodal analysis of early Alzheimer’s disease by targeting CTGF” (Nature Communications, 2024)
Entries after “also recorded” stand apart in the source; their conditions may differ. Ends that are not written are not given here.

Tests used:
[1] = In vitro stability of DGC fluorescence on storage in PBS; type: physicochemical; conditions: two weeks storage in PBS
From the text: In this manuscript, Lu et al. reported a novel gold cluster-based probe modified with peptides that specifically bind to connective tissue growth factor (CTGF). Owing to the elevated expression of CTGF is an upstream regulator of amyloid-beta (Aβ) plaque, the probe holds a promise for potential application in the early diagnosis of Alzheimer's disease (AD). The unique feature of this probe is their capacity to emit near-infrared (NIR) light, rendering them suitable for in vivo imaging. Moreover, their ability to […]
The article is well-crafted, and the experiments convincingly highlight the distinctive properties of the newly developed probe. […]
following concerns are addressed.
Reviewer 1: How long can the fluorescence last in the cells and AD brain, or how stable is the fluorescence of the probe?
Response: We monitored the fluorescence changes of DGC probes in vitro, in U87MG cells and in brain of APP/PS1 mice, respectively. […]
cultured U87MG cells, DGC probe could be well internalized, and obvious […]
medium for 72 h (Fig R5). In APP/PS1 mice, we detected temporal changes of luminescence from DGC in the brain by in vivo NIR-II imaging. […]
Figure R6. […] Monitoring fluorescence intensity of DGC in brain of WT mice and 3-month-old APP/PS1 mice for 24 h (left). […]

[2] = biological target: T1, CTGF (Mus musculus, UniProt P29268); test: In vivo NIR-II imaging of brain after DGC injection; design: species or system APP/PS1 and wild-type C57BL/6J mice; conditions: APP/PS1 mice
T1 construct: brain sections of the age-matched wild-type C57BL/6J mice were used as controls; from tissue; host or cells: brain of APP/PS1 transgenic and wild-type C57BL/6J mice (sections, living animal, perfused isolated brain)
T1 sequence (P29268 26-348): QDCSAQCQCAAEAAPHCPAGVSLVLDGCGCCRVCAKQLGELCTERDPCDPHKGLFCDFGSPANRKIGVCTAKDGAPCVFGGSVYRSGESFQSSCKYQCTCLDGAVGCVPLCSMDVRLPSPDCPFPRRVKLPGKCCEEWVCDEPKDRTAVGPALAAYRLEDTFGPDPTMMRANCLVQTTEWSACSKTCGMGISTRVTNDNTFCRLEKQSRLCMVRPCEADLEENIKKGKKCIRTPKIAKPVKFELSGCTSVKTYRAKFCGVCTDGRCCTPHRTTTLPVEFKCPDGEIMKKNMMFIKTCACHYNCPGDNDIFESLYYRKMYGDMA
Protocol: All animal procedures were performed under an approved protocol of the Ethics Committee of Beijing University of Technology, China. Female APP/PS1 mice and age-matched wild-type C57BL/6J mice were shaved before background imaging. For NIR-II imaging in vivo with DGC, the mice (n = 3) were fasted overnight before the experiment and then injected intravenously with DGC (20 mg/kg, 200 μL). NIR-II imaging of the brains was carried out on an In vivo Master (Grand-imaging Technology) equipped with an InGaAs camera C-RED2 (Firstlight) at different time points after injection of DGC (λ ex = 808 nm, 1000 nm longpass (LP) filter (Edmund Optics)). The excitation intensity of the 808 nm laser (Wuhan Grand-imaging Technology) was about […] and the optical images were acquired using an exposure time of 50 ms. Imaging data were analyzed by ImageJ software.

[3] = Parallel artificial membrane permeability assay (PAMPA) mimicking BBB; type: in vitro ADME; conditions: for PAMPA permeability Pe: precoated PAMPA plate, 40 μM in PBS, 5 h, room temperature, ICP-MS
Protocol: A parallel artificial membrane permeability assay was performed in a 96-well precoated PAMPA plate system (Corning Gentest # 353015). The experimental solutions of DGC were prepared by diluting the stock solutions (10 mM) in PBS at a final concentration of 40 μM and then added to the donor portion of the plate (300 μL/well), while PBS (200 μL/well) was added to the acceptor portion, and the DMSO concentration was lower than 1%. The filter plate was then coupled with the receiver plate, and the plate assembly was incubated at room temperature without agitation for 5 h. Samples of the initial donor solution (C0) were collected and stored at 4 °C. At the end of the incubation, samples were collected from the donor and acceptor plates and then added to aqua regia (HCl: HNO3, volume ratio = 3:1). The C0 samples were treated similarly. The final concentrations of DGC in the donor, acceptor, and T0 wells were quantified by the ICP-MS system (Thermo Elemental X7, USA). The results were used to calculate an effective permeability (Pe, cm/s) value. Permeability of DGC was calculated using the following Eq. (1):1 Pe={-ln[1-CA(t)/Ceq]}/[A×(1/VD+1/VA)×t] Where A = filter area (0.3 cm^2), t = incubation time (seconds), CA(t) = compound concentration in acceptor well at time t, VD = donor well volume (0.3 mL), VA = acceptor well volume (0.2 mL), CD(t) = compound concentration in donor well at time t, and Ceq was calculated using the following Eq. (2):2 Ceq=[CD(t)×VD+CA(t)×VA]/(VD+VA)

[4] = ICP-MS of Au in whole brains of DGC-injected mice; type: in vivo, APP/PS1 and WT mice; conditions: DGC-injected 3-month-old APP/PS1 mice vs WT, n = 3
Protocol: SH-SY5Y cell, maybe resulting in a similar perception of fluorescence intensity.
Reviewer 1: The ICP-MS of the whole brains from DGC-treated normal or APP/PS1 mice should be quantified, not only brain sections.
NIR-II imaging in Fig. 4 were frozen grinded and digested, and the content of Au in the whole brain was measured by ICP-MS. […]
which was consistent with the results of the NIR -II imaging.
Figure R7. The Au content in brains of DGC -injected 3-month-old APP/PS1 mice and the age- […]
hippo? Is there any experiment or literature to support the content of CTGF at different positions in different periods?
Response: According to previous reports, the expression pattern of CTGF was slightly different in several AD mouse models. The homing of DAG peptide was mainly seen in the cortex of the Tg2576 mice and in the hippocampus of the hAPP-J20 mice (Nat.
Commun. 2017, 8, 1403). A marked increase of CTGF levels in the brains of APP/PS1 transgenic mice were also observed, and is mainly located in the cortical (Mol.
(1 picture or pasted object on this page, not shown here)

Q: For “DGC: CTGF-targeting peptide-coated gold nanocluster: one Au26 gold nanocluster coated by eight DAG cyclic peptides, NIR-II and red fluorescence (CDAGRKQKC; also: cyclic peptide, ring not given here, eight peptides on one Au26 nanocluster via Cys Au-S bonds)”, which “fluorescence intensity change on storage” value [1] is on record?
A: decreased only slightly; also recorded: decreased only

Q: What about the “NIR-II fluorescence in the brains” value ([2]; 24 h after injection) of the same substance?
A: still observed

Q: And the “time of peak brain NIR-II signal” value ([2]; after tail vein injection of DGC)?
A: 4 h

Q: What about the “BBB permeability class (PAMPA)” value ([3]; 40 μM) of the same substance?
A: high BBB permeability

Q: What about the “PAMPA permeability Mean Pe” value ([3]; at several concentrations) of the same substance?
A: higher than 1.5 * 10^-6 cm/s

Q: And the “PAMPA permeability Pe” value ([3]; replicate 1)?
A: 2.121 ×10⁻⁶ cm/s

Q: What about the “PAMPA permeability Pe” value ([3]; replicate 2) of the same substance?
A: 2.6 ×10⁻⁶ cm/s

Q: And the “PAMPA permeability Pe” value ([3]; replicate 3)?
A: 1.724 ×10⁻⁶ cm/s

Q: What about the “Au content in whole brain, APP/PS1 vs age-matched WT” value [4] of the same substance?
A: more than twice
